Measured values taken from patent publication US20090239794A1, “HCV F PROTEIN AND USES THEREOF” (priority 2004, published 2009).
Several values for one entry are separate records, joined by “and”; a condition that tells them apart may be missing. Equal values may be shown once.

Test system: C57Bl/6 mice
Experiment: Protocol 1: ARFP immunization of mice, total anti-ARFP Ig ELISA
[1] = individual mice 31-45, 1st immunization (day 0), listed as ARFP
[2] = individual mice 31-45, 2nd immunization (day 13), listed as ARFP
[3] = individual mice 31-45, 3d immunization (day 35), listed as ARFP
[4] = individual mice 31-45, Sacrifice (day 53), listed as ARFP

Method: Plates were blocked for 2 h/4° C. with 200 μl per well of 5 mg/ml bovine serum albumin (BSA) in 100 mM NaHCO3 pH 8.6, and were washed 6 times with 10 mM tris base, 150 mM NaCl, 0.05% Tween-20 pH 7.4 (1×TBST). […] After 90 min, optical density was measured at 410 nm in a MR7000 spectrophotometer (Dynatec, Chantilly, Va.).
In a first set of experiments, induction of ARFP-specific humoral (i.e. antibody) immune responses was tested as follows.
Protocol 1. […] Ten 5-week old female C57Bl/6 mice were injected with 100 μl phosphate-buffered saline and were used as controls. An identical immunization procedure was repeated on day 13, and again on day 35. 200 μl of blood was obtained by maxillary bleeding prior to each immunization (days 0, 13, and 35). Mice were sacrificed by CO2 asphyxiation and bled by cardiac puncture on day 53. All blood samples were centrifuged and sera was collected and frozen at −80° C. until used. Total immunoglobulin (Ig) responses (IgA, IgM, and IgG) were tested by enzyme-linked immuno-sorbent assay (ELISA) as described in Example 1, except that alkaline phosphatase-conjugated anti-mouse polyvalent immunoglobulins (G, A, M) (A-0162, Sigma, St. Louis, Mo.) were used instead of alkaline phosphatase-conjugated monoclonal anti-human IgG (A-2064, Sigma). […] Optical density was measured at 410 nm (Table 4). […] The ELISA threshold value was set at 3 times the OD410 measured in the negative control with the highest readout (highlighted in Table 6).

B1: Fmut8Δ11: truncated recombinant HCV-1a F protein lacking the first 11 N-terminal residues shared with core; SEQ ID NO: 12; produced in E. coli (protein)
chain: PNVTPTVAHRTSSSRVAVRSLVEFTCCRAGALDWVCARRGRLPSGRNLEVDVSLSPRHVGPRAGPGLSPGTLGPSMAMRAADGRDGSCLPVALGLVGAPQTPGVGRAIWVRSSIPSRAASPTSWGTYRSSAPPLEALPGPWRMASGFWRTA
modifications: Hepatitis C virus
Before the 2nd immunization
  ARFP-specific Ig titer, mean+/−standard deviation: 10.00+/−27.08
Day 35
  anti-ARFP Ig titer, mean+/−standard deviation: 1400+/−419.5
Day 53
  anti-ARFP Ig titer, mean+/−standard deviation: 1547+/−199.6
Individual mice 31-45, 1st immunization (day 0)
  Titer (anti-ARFP Ig ELISA): 0
[1]
  ELISA OD410, serum dilution 1/50: 0.211 and 0.209 and 0.199 and 0.218 and 0.323 and 0.278 and 0.229 and 0.166 and 0.236 and 0.243 and 0.247 and 0.208 and 0.206 and 0.205 and 0.217
  ELISA OD410, serum dilution 1/100: 0.128 and 0.115 (2×) and 0.174 and 0.208 and 0.186 and 0.171 and 0.152 and 0.161 (2×) and 0.145 and 0.134 and 0.132 and 0.142 and 0.127
  ELISA OD410, serum dilution 1/200: 0.123 and 0.150 and 0.128 and 0.136 (2×) and 0.114 and 0.111 and 0.121 and 0.113 (2×) and 0.104 and 0.117 and 0.164 and 0.144 and 0.140
  ELISA OD410, serum dilution 1/400: 0.132 and 0.164 and 0.114 and 0.118 and 0.116 and 0.121 and 0.133 and 0.115 and 0.104 and 0.110 and 0.120 and 0.128 and 0.191 and 0.138 and 0.126
  ELISA OD410, serum dilution 1/800: 0.119 and 0.138 and 0.113 and 0.118 and 0.115 (2×) and 0.117 and 0.128 and 0.108 and 0.103 and 0.105 and 0.123 and 0.134 and 0.137 and 0.114
  ELISA OD410, serum dilution 1/1600: 0.138 and 0.122 and 0.109 (2×) and 0.110 and 0.116 and 0.124 and 0.108 and 0.106 and 0.107 and 0.105 and 0.119 and 0.129 and 0.127 and 0.114
[2]
  ELISA OD410, serum dilution 1/50: 0.732 and 0.272 and 0.750 and 0.293 and 0.231 and 0.965 and 0.137 and 0.916 and 0.132 and 0.13 and 0.186 and 0.049 and 0.046 and 0.048 and 0.045
  ELISA OD410, serum dilution 1/100: 0.306 and 0.117 and 0.197 and 0.157 and 0.138 and 0.890 and 0.113 and 0.742 and 0.112 and 0.116 and 0.105 and 0.045 and 0.053 and 0.048 and 0.046
  ELISA OD410, serum dilution 1/200: 0.165 and 0.113 and 0.166 and 0.127 and 0.160 and 0.815 and 0.108 and 0.441 and 0.107 (2×) and 0.111 and 0.102 and 0.798 and 0.116 and 0.123
  ELISA OD410, serum dilution 1/400: 0.147 and 0.110 (2×) and 0.154 and 0.121 and 0.117 and 0.677 and 0.328 and 0.107 and 0.105 and 0.115 and 0.101 and 0.279 and 0.103 and 0.120
  ELISA OD410, serum dilution 1/800: 0.124 and 0.106 (5×) and 0.137 and 0.123 and 0.125 and 0.454 and 0.105 and 0.219 and 0.099 and 0.097 and 0.273
  ELISA OD410, serum dilution 1/1600: 0.120 (2×) and 0.118 (2×) and 0.119 and 0.590 and 0.104 and 0.171 and 0.105 and 0.108 and 0.103 and 0.096 and 0.223 and 0.110 (2×)
  Titer (anti-ARFP Ig ELISA): 0 (13×) and 100 and 50
[3]
  ELISA OD410, serum dilution 1/50: 3.652 and 3.551 and 3.142 and 3.623 and 3.509 and 3.334 and 3.530 and 3.887 and 3.464 and 3.796 and 1.628 and 1.467 and 2.140 and 2.336 and 2.453
  ELISA OD410, serum dilution 1/100: 3.642 and 2.683 and 3.700 and 2.841 and 3.563 and 3.625 and 3.306 and >4.000 (2×) and 3.808 and 1.093 and 1.941 and 2.487 and 1.264 and 2.058
  ELISA OD410, serum dilution 1/200: 3.616 and 2.046 and 3.630 and 2.088 and 3.556 and 3.596 and 2.436 and 3.957 and 3.541 and >4.000 and 3.494 and 2.657 and 1.722 and 0.993 and 1.772
  ELISA OD410, serum dilution 1/400: 3.569 and 1.681 and 3.296 and 1.522 and 3.465 and 3.590 and 1.859 and 3.799 and 3.582 and 3.896 and 3.238 and 2.397 and 1.929 and 0.725 and 1.607
  ELISA OD410, serum dilution 1/800: 3.434 and 1.072 and 3.166 and 0.937 and 3.213 and 3.438 and 1.297 and 3.425 and 3.053 and 2.776 and 2.442 and 2.015 and 1.185 and 0.508 and 1.517
  ELISA OD410, serum dilution 1/1600: 3.521 and 0.641 and 3.190 and 0.590 and 3.181 and 3.455 and 0.931 and 3.139 and 2.783 and 1.989 and 1.713 and 1.578 and 0.957 and 0.408 and 1.453
  Titer (anti-ARFP Ig ELISA): >1600 (12×) and 800 (2×) and 200
[4]
  ELISA OD410, serum dilution 1/50: 2.023 and 2.008 and 1.658 and 1.054 and 1.709 and 1.411 and 1.314 and 1.736 and 2.224 and 1.741 and 1.006 and 1.424 and 1.613 and 1.434 and 1.373
  ELISA OD410, serum dilution 1/100: 2.028 and 1.542 and 1.830 and 1.646 and 1.839 and 1.829 and 1.483 and 2.139 and 1.904 and 1.714 and 1.872 and 1.790 and 1.912 and 1.489 and 1.880
  ELISA OD410, serum dilution 1/200: 2.202 and 2.602 and 1.876 and 1.837 and 1.805 and 2.091 and 1.948 and 2.168 and 2.422 and 1.540 and 1.773 and 1.658 and 1.724 and 1.471 and 2.006
  ELISA OD410, serum dilution 1/400: 2.376 and 2.547 and 1.889 and 1.913 and 1.776 and 2.225 and 1.925 and 2.356 and 2.456 and 1.266 and 1.783 and 1.907 and 1.312 and 1.223 and 1.919
  ELISA OD410, serum dilution 1/800: 2.490 and 1.574 and 1.874 and 1.814 and 1.617 and 2.117 and 1.671 and 1.664 and 2.196 and 0.928 and 1.825 and 2.059 and 1.478 and 1.136 and 2.197
  ELISA OD410, serum dilution 1/1600: 2.209 and 1.970 and 2.157 and 1.987 and 1.674 and 2.269 and 1.574 and 1.671 and 1.659 and 0.648 and 1.749 and 2.062 and 1.233 and 1.157 and 1.672
  Titer (anti-ARFP Ig ELISA): >1600 (14×) and 800
